T1: human corticotrophin releasing hormone receptor type 2 (CRHR2) (human, UniProt Q13324 1-411)
T1 sequence (looked up): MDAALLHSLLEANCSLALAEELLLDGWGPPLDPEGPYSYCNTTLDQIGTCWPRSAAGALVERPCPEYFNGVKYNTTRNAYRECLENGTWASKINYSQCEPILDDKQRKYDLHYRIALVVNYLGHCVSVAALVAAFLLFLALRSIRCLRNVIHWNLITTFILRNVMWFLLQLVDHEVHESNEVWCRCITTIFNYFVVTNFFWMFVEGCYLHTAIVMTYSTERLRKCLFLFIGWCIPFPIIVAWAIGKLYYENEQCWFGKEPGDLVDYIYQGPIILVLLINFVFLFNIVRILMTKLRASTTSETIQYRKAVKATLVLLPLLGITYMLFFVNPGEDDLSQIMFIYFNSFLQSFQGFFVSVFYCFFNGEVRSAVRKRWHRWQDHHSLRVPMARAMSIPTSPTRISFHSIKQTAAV

B1: Cys-variant stresscopin-like peptide SEQ ID NO: 31 (peptide)
peptide: TKFTLSLDVPTNIMNLLFNIAKAKNLRAQCAANAHLMAQI-NH2
B2: Pegylated Cys-variant stresscopin-like peptide with NES linker and PEG about 20 kDa SEQ ID NO: 71 (peptide)
peptide: TKFTLSLDVPTNIMNLCFNIAKAKNLRAQAAANAHLMAQI
modifications: NES-PEG (about 20 kDa) on Cys 17; C-terminal amide (-NH2)
B3: Pegylated Cys-variant stresscopin-like peptide with NES linker and PEG about 20 kDa SEQ ID NO: 76 (peptide)
peptide: B2 peptide with C17L, K22C
modifications: NES-PEG (about 20 kDa) on Cys 22; C-terminal amide (-NH2)
B4: Pegylated Cys-variant stresscopin-like peptide with NES linker and PEG about 20 kDa SEQ ID NO: 83 (peptide)
peptide: B2 peptide with C17L, Q29C
modifications: NES-PEG (about 20 kDa) on Cys 29; C-terminal amide (-NH2)
B5: Pegylated Cys-variant stresscopin-like peptide with NES linker and PEG about 20 kDa SEQ ID NO: 73 (peptide)
peptide: B2 peptide with C17L, N19C
modifications: NES-PEG (about 20 kDa) on Cys 19; C-terminal amide (-NH2)
B6: Pegylated Cys-variant stresscopin-like peptide with NES linker and PEG about 20 kDa SEQ ID NO: 88 (peptide)
peptide: B2 peptide with C17L, A34C
modifications: NES-PEG (about 20 kDa) on Cys 34; C-terminal amide (-NH2)
B7: Pegylated Cys-variant stresscopin-like peptide with NES linker and PEG about 20 kDa SEQ ID NO: 89 (peptide)
peptide: B2 peptide with C17L, H35C
modifications: NES-PEG (about 20 kDa) on Cys 35; C-terminal amide (-NH2)
B8: Pegylated Cys-variant stresscopin-like peptide with NES linker and PEG about 20 kDa SEQ ID NO: 85 (peptide)
peptide: B2 peptide with C17L, A31C
modifications: NES-PEG (about 20 kDa) on Cys 31; C-terminal amide (-NH2)
B9: Pegylated Cys-variant stresscopin-like peptide with NES linker and PEG about 20 kDa SEQ ID NO: 80 (peptide)
peptide: B2 peptide with C17L, L26C
modifications: NES-PEG (about 20 kDa) on Cys 26; C-terminal amide (-NH2)
B10: Pegylated Cys-variant stresscopin-like peptide with NES linker and PEG about 20 kDa SEQ ID NO: 84 (peptide)
peptide: B2 peptide with C17L, A30C
modifications: NES-PEG (about 20 kDa) on Cys 30; C-terminal amide (-NH2)
B11: Pegylated Cys-variant stresscopin-like peptide with NES linker and PEG about 20 kDa SEQ ID NO: 86 (peptide)
peptide: B2 peptide with C17L, A32C
modifications: NES-PEG (about 20 kDa) on Cys 32; C-terminal amide (-NH2)
B12: Pegylated Cys-variant stresscopin-like peptide with NES linker and PEG about 20 kDa SEQ ID NO: 75 (peptide)
peptide: B2 peptide with C17L, A21C
modifications: NES-PEG (about 20 kDa) on Cys 21; C-terminal amide (-NH2)
B13: Pegylated Cys-variant stresscopin-like peptide with NES linker and PEG about 20 kDa SEQ ID NO: 74 (peptide)
peptide: B2 peptide with C17L, I20C
modifications: NES-PEG (about 20 kDa) on Cys 20; C-terminal amide (-NH2)
B14: Pegylated Cys-variant stresscopin-like peptide with NES linker and PEG about 20 kDa SEQ ID NO: 87 (peptide)
peptide: B2 peptide with C17L, N33C
modifications: NES-PEG (about 20 kDa) on Cys 33; C-terminal amide (-NH2)
B15: Pegylated Cys-variant stresscopin-like peptide with NES linker and PEG about 20 kDa SEQ ID NO: 91 (peptide)
peptide: B2 peptide with C17L, M37C
modifications: NES-PEG (about 20 kDa) on Cys 37; C-terminal amide (-NH2)
B16: Pegylated Cys-variant stresscopin-like peptide with NES linker and PEG about 20 kDa SEQ ID NO: 81 (peptide)
peptide: B2 peptide with C17L, R27C
modifications: NES-PEG (about 20 kDa) on Cys 27; C-terminal amide (-NH2)
B17: Pegylated Cys-variant stresscopin-like peptide with NES linker and PEG about 20 kDa SEQ ID NO: 82 (peptide)
peptide: B2 peptide with C17L, A28C
modifications: NES-PEG (about 20 kDa; MW20000) on Cys 28; C-terminal amide (-NH2)
B18: Pegylated Cys-variant stresscopin-like peptide with NES linker and PEG about 20 kDa SEQ ID NO: 72 (peptide)
peptide: B2 peptide with C17L, F18C
modifications: NES-PEG (about 20 kDa) on Cys 18; C-terminal amide (-NH2)
B19: Pegylated Cys-variant stresscopin-like peptide with NES linker and PEG about 20 kDa SEQ ID NO: 90 (peptide)
peptide: B2 peptide with C17L, L36C
modifications: NES-PEG (about 20 kDa) on Cys 36; C-terminal amide (-NH2)
B20: Pegylated Cys-variant stresscopin-like peptide with NES linker and PEG about 20 kDa SEQ ID NO: 78 (peptide)
peptide: B2 peptide with C17L, K24C
modifications: NES-PEG (about 20 kDa) on Cys 24; C-terminal amide (-NH2)
B21: Pegylated Cys-variant stresscopin-like peptide with NES linker and PEG about 20 kDa SEQ ID NO: 79 (peptide)
peptide: B2 peptide with C17L, N25C
modifications: NES-PEG (about 20 kDa) on Cys 25; C-terminal amide (-NH2)
B22: Pegylated Cys-variant stresscopin-like peptide with NES linker and PEG about 20 kDa SEQ ID NO: 77 (peptide)
peptide: B2 peptide with C17L, A23C
modifications: NES-PEG (about 20 kDa) on Cys 23; C-terminal amide (-NH2)
B23: Cys-variant stresscopin-like peptide SEQ ID NO: 21 (peptide)
peptide: TKFTLSLDVPTNIMNLLFNCAKAKNLRAQAAANAHLMAQI-NH2
B24: Cys-variant stresscopin-like peptide SEQ ID NO: 32 (peptide)
peptide: TKFTLSLDVPTNIMNLLFNIAKAKNLRAQACANAHLMAQI-NH2
B25: Cys-variant stresscopin-like peptide SEQ ID NO: 27 (peptide)
peptide: TKFTLSLDVPTNIMNLLFNIAKAKNCRAQAAANAHLMAQI-NH2
B26: Cys-variant stresscopin-like peptide SEQ ID NO: 25 (peptide)
peptide: TKFTLSLDVPTNIMNLLFNIAKACNLRAQAAANAHLMAQI-NH2
B27: Cys-variant stresscopin-like peptide SEQ ID NO: 38 (peptide)
peptide: TKFTLSLDVPTNIMNLLFNIAKAKNLRAQAAANAHLCAQI-NH2
B28: Cys-variant stresscopin-like peptide SEQ ID NO: 26 (peptide)
peptide: TKFTLSLDVPTNIMNLLFNIAKAKCLRAQAAANAHLMAQI-NH2
B29: Cys-variant stresscopin-like peptide SEQ ID NO: 30 (peptide)
peptide: TKFTLSLDVPTNIMNLLFNIAKAKNLRACAAANAHLMAQI-NH2
B30: Cys-variant stresscopin-like peptide SEQ ID NO: 23 (peptide)
peptide: TKFTLSLDVPTNIMNLLFNIACAKNLRAQAAANAHLMAQI-NH2
B31: Cys-variant stresscopin-like peptide SEQ ID NO: 24 (peptide)
peptide: TKFTLSLDVPTNIMNLLFNIAKCKNLRAQAAANAHLMAQI-NH2
B32: Cys-variant stresscopin-like peptide SEQ ID NO: 20 (peptide)
peptide: TKFTLSLDVPTNIMNLLFCIAKAKNLRAQAAANAHLMAQI-NH2
B33: Cys-variant stresscopin-like peptide SEQ ID NO: 37 (peptide)
peptide: TKFTLSLDVPTNIMNLLFNIAKAKNLRAQAAANAHCMAQI-NH2
B34: Cys-variant stresscopin-like peptide SEQ ID NO: 33 (peptide)
peptide: TKFTLSLDVPTNIMNLLFNIAKAKNLRAQAACNAHLMAQI-NH2
B35: Cys-variant stresscopin-like peptide SEQ ID NO: 22 (peptide)
peptide: TKFTLSLDVPTNIMNLLFNICKAKNLRAQAAANAHLMAQI-NH2
B36: Cys-variant stresscopin-like peptide SEQ ID NO: 35 (peptide)
peptide: TKFTLSLDVPTNIMNLLFNIAKAKNLRAQAAANCHLMAQI-NH2
B37: Cys-variant stresscopin-like peptide SEQ ID NO: 39 (peptide)
peptide: TKFTLSLDVPTNIMNLLFNIAKAKNLRAQAAANAHLMCQI-NH2
B38: Cys-variant stresscopin-like peptide SEQ ID NO: 28 (peptide)
peptide: TKFTLSLDVPTNIMNLLFNIAKAKNLCAQAAANAHLMAQI-NH2
B39: Cys-variant stresscopin-like peptide SEQ ID NO: 29 (peptide)
peptide: TKFTLSLDVPTNIMNLLFNIAKAKNLRCQAAANAHLMAQI-NH2
B40: Cys-variant stresscopin-like peptide SEQ ID NO: 19 (peptide)
peptide: TKFTLSLDVPTNIMNLLCNIAKAKNLRAQAAANAHLMAQI-NH2
B41: Cys-variant stresscopin-like peptide SEQ ID NO: 36 (peptide)
peptide: TKFTLSLDVPTNIMNLLFNIAKAKNLRAQAAANACLMAQI-NH2
B42: Cys-variant stresscopin-like peptide SEQ ID NO: 34 (peptide)
peptide: TKFTLSLDVPTNIMNLLFNIAKAKNLRAQAAACAHLMAQI-NH2

Where a chain is given by its changes, count along the chain named. Where no end group is shown, it is not given here.

For this experiment, the target named is T1, human corticotrophin releasing hormone …. Nature of the experiment: cell-based or functional assay.
B1: the “Log DR” value turned out to be 1.61 log10 and the pA50 is 8.02 -log10(M).
As to B2, the “Log DR” value is approximately 2.26 log10 and the pA50 is ~7.35 -log10(M).
The matching figures for B3: 2.7 log10 and 6.84 -log10(M).
As to B4, the “Log DR” value came out at 1.63 log10 and the pA50 was 7.91 -log10(M).
The matching figures for B5: 1.11 log10 and 8.29 -log10(M).
In the same order, the values of B6 are 1.55 log10 and 8.12 -log10(M).
In the same order, the values of B7 are 0.98 log10 and 8.48 -log10(M).
As to B8, the “Log DR” value came to 0.89 log10 and the pA50 is 8.51 -log10(M).
Consider B9, for which the “Log DR” value amounted to 1.75 log10 and the pA50 is 7.6 -log10(M).
With B10, the “Log DR” value was approximately 2.84 log10 and the pA50 is ~6.82 -log10(M).
For the molecule B11, the “Log DR” value is 0.82 log10 and the pA50 was 8.79 -log10(M).
As for B12, the “Log DR” value was determined as 1.3 log10 and the pA50 is 8.24 -log10(M).
On to B13, for which the “Log DR” value is approximately 2.28 log10 and the pA50 was ~7.33 -log10(M).
On to B14, for which the “Log DR” value is more than 3.68 log10 and the pA50 is ~6 -log10(M).
Consider B15, for which the “Log DR” value is more than 3.43 log10 and the pA50 was ~6.23 -log10(M).
On to B16, for which the “Log DR” value worked out at 1.82 log10 and the pA50 is 7.83 -log10(M).
The matching figures for B17: 1.12 log10 and 8.4 -log10(M).
On to B18, for which the “Log DR” value was determined as 1.5 log10 and the pA50 was 8.04 -log10(M).
Regarding B19, the “Log DR” value was approximately 2.17 log10 and the pA50 is ~7.49 -log10(M).
As to B20, the “Log DR” value is approximately 1.52 log10 and the pA50 was ~7.89 -log10(M).
The matching figures for B21: 1.11 log10 and 8.5 -log10(M).
B22: the “Log DR” value is 1.27 log10 and the pA50 is 8.27 -log10(M).
As for B23, the “Log DR” value was 0.77 log10 and the pA50 was 8.75 -log10(M).
Take B24: the “Log DR” value stood at 0.11 log10 and the pA50 was 9.41 -log10(M).
With B25, the “Log DR” value is 0.76 log10 and the pA50 was 8.76 -log10(M).
Consider B26, for which the “Log DR” value turned out to be 0.35 log10 and the pA50 is 9.17 -log10(M).
Turning to B27, the “Log DR” value was more than 2.95 log10 and the pA50 is ~6.67 -log10(M).
With B28, the “Log DR” value was 0.08 log10 and the pA50 is 9.44 -log10(M).
As for B29, the “Log DR” value was determined as 1.28 log10 and the pA50 was 8.4 -log10(M).
In the case of B30, the “Log DR” value was determined as 1.13 log10 and the pA50 is 8.55 -log10(M).
With B31, the “Log DR” value was found to be 0.74 log10 and the pA50 was 8.94 -log10(M).
Take B32: the “Log DR” value was found to be 0.52 log10 and the pA50 is 9 -log10(M).
Turning to B33, the “Log DR” value worked out at 1.05 log10 and the pA50 was 8.58 -log10(M).
In the case of B34, the “Log DR” value turned out to be 0.45 log10 and the pA50 is 9.07 -log10(M).
Turning to B35, the “Log DR” value was determined as 0.52 log10 and the pA50 is 9.17 -log10(M).
In the case of B36, the “Log DR” value was 0.7 log10 and the pA50 is 8.93 -log10(M).
With B37, the “Log DR” value stood at 0.41 log10 and the pA50 is 9.21 -log10(M).
Take B38: the “Log DR” value stood at 1.61 log10 and the pA50 is 9.36 -log10(M).
In the case of B39, the “Log DR” value was found to be 0 log10 and the pA50 is 9.47 -log10(M).
With B40, the “Log DR” value amounted to 1.67 log10 and the pA50 is 8.01 -log10(M).
Take B41: the “Log DR” value was 0.42 log10 and the pA50 was 9.1 -log10(M).
With B42, the “Log DR” value was more than 3.19 log10 and the pA50 is ~6.32 -log10(M).

The record behind these values is US20110105397A1, “METHOD FOR TREATING HEART FAILURE WITH STRESSCOPIN-LIKE PEPTIDES” (priority 2009, published 2011).
